Test results: paper PMC12416549 (2024)

T1: TNFR1 (Homo sapiens, UniProt P19438)
T1 chain: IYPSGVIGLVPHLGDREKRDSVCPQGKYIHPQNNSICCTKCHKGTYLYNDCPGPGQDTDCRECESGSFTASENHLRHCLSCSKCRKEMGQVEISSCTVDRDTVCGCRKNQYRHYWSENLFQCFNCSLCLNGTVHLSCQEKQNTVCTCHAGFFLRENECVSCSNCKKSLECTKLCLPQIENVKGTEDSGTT


Target: T1, TNFR1
Experiment: yeast display SC50

| Binder | apparent Kd (screen) [nM] |
| --- | --- |
| E14Q (designed binder) SMEEEVEKAAKEYQKKKKEAIEKHLEKLKAKDKEAAERFLKELEEAAKEYAKDEAKTMSEEEAKRRAKKYKEKVLLSELSEEEQKEIKEAEEKLVRTILKYVEEAAK | 4.83 |
| Y50L (designed binder) SMEEEVEKAAKEYEKKKKEAIEKHLEKLKAKDKEAAERFLKELEEAAKELAKDEAKTMSEEEAKRRAKKYKEKVLLSELSEEEQKEIKEAEEKLVRTILKYVEEAAK | 0.79 |
| T97V (designed binder) SMEEEVEKAAKEYEKKKKEAIEKHLEKLKAKDKEAAERFLKELEEAAKEYAKDEAKTMSEEEAKRRAKKYKEKVLLSELSEEEQKEIKEAEEKLVRVILKYVEEAAK | 2.73 |
| V74D (designed binder) SMEEEVEKAAKEYEKKKKEAIEKHLEKLKAKDKEAAERFLKELEEAAKEYAKDEAKTMSEEEAKRRAKKYKEKDLLSELSEEEQKEIKEAEEKLVRTILKYVEEAAK | 0.405 |
| L28M (designed binder) SMEEEVEKAAKEYEKKKKEAIEKHLEKMKAKDKEAAERFLKELEEAAKEYAKDEAKTMSEEEAKRRAKKYKEKVLLSELSEEEQKEIKEAEEKLVRTILKYVEEAAK | 0.956 |
| H24S (designed binder) SMEEEVEKAAKEYEKKKKEAIEKSLEKLKAKDKEAAERFLKELEEAAKEYAKDEAKTMSEEEAKRRAKKYKEKVLLSELSEEEQKEIKEAEEKLVRTILKYVEEAAK | 0.869 |
| K85N (designed binder) SMEEEVEKAAKEYEKKKKEAIEKHLEKLKAKDKEAAERFLKELEEAAKEYAKDEAKTMSEEEAKRRAKKYKEKVLLSELSEEEQNEIKEAEEKLVRTILKYVEEAAK | 0.446 |
| K29G (designed binder) SMEEEVEKAAKEYEKKKKEAIEKHLEKLGAKDKEAAERFLKELEEAAKEYAKDEAKTMSEEEAKRRAKKYKEKVLLSELSEEEQKEIKEAEEKLVRTILKYVEEAAK | 0.446 |
| M58T (designed binder) SMEEEVEKAAKEYEKKKKEAIEKHLEKLKAKDKEAAERFLKELEEAAKEYAKDEAKTTSEEEAKRRAKKYKEKVLLSELSEEEQKEIKEAEEKLVRTILKYVEEAAK | 4.83 |
| K93Q (designed binder) SMEEEVEKAAKEYEKKKKEAIEKHLEKLKAKDKEAAERFLKELEEAAKEYAKDEAKTMSEEEAKRRAKKYKEKVLLSELSEEEQKEIKEAEEQLVRTILKYVEEAAK | 0.49 |
| E83G (designed binder) SMEEEVEKAAKEYEKKKKEAIEKHLEKLKAKDKEAAERFLKELEEAAKEYAKDEAKTMSEEEAKRRAKKYKEKVLLSELSEEGQKEIKEAEEKLVRTILKYVEEAAK | 1.69 |
| K68P (designed binder) SMEEEVEKAAKEYEKKKKEAIEKHLEKLKAKDKEAAERFLKELEEAAKEYAKDEAKTMSEEEAKRRAPKYKEKVLLSELSEEEQKEIKEAEEKLVRTILKYVEEAAK | 7.07 |
| T57V (designed binder) SMEEEVEKAAKEYEKKKKEAIEKHLEKLKAKDKEAAERFLKELEEAAKEYAKDEAKVMSEEEAKRRAKKYKEKVLLSELSEEEQKEIKEAEEKLVRTILKYVEEAAK | 0.49 |
| K8C (designed binder) SMEEEVECAAKEYEKKKKEAIEKHLEKLKAKDKEAAERFLKELEEAAKEYAKDEAKTMSEEEAKRRAKKYKEKVLLSELSEEEQKEIKEAEEKLVRTILKYVEEAAK | 0.956 |
| A20D (designed binder) SMEEEVEKAAKEYEKKKKEDIEKHLEKLKAKDKEAAERFLKELEEAAKEYAKDEAKTMSEEEAKRRAKKYKEKVLLSELSEEEQKEIKEAEEKLVRTILKYVEEAAK | 1.16 |
| A106K (designed binder) SMEEEVEKAAKEYEKKKKEAIEKHLEKLKAKDKEAAERFLKELEEAAKEYAKDEAKTMSEEEAKRRAKKYKEKVLLSELSEEEQKEIKEAEEKLVRTILKYVEEAKK | 0.593 |
| Y70S (designed binder) SMEEEVEKAAKEYEKKKKEAIEKHLEKLKAKDKEAAERFLKELEEAAKEYAKDEAKTMSEEEAKRRAKKSKEKVLLSELSEEEQKEIKEAEEKLVRTILKYVEEAAK | 4.83 |
| A106G (designed binder) SMEEEVEKAAKEYEKKKKEAIEKHLEKLKAKDKEAAERFLKELEEAAKEYAKDEAKTMSEEEAKRRAKKYKEKVLLSELSEEEQKEIKEAEEKLVRTILKYVEEAGK | 0.79 |
| E44K (designed binder) SMEEEVEKAAKEYEKKKKEAIEKHLEKLKAKDKEAAERFLKELKEAAKEYAKDEAKTMSEEEAKRRAKKYKEKVLLSELSEEEQKEIKEAEEKLVRTILKYVEEAAK | 0.956 |
| E37A (designed binder) SMEEEVEKAAKEYEKKKKEAIEKHLEKLKAKDKEAAARFLKELEEAAKEYAKDEAKTMSEEEAKRRAKKYKEKVLLSELSEEEQKEIKEAEEKLVRTILKYVEEAAK | 0.49 |
| L76N (designed binder) SMEEEVEKAAKEYEKKKKEAIEKHLEKLKAKDKEAAERFLKELEEAAKEYAKDEAKTMSEEEAKRRAKKYKEKVLNSELSEEEQKEIKEAEEKLVRTILKYVEEAAK | 2.73 |
| Y70I (designed binder) SMEEEVEKAAKEYEKKKKEAIEKHLEKLKAKDKEAAERFLKELEEAAKEYAKDEAKTMSEEEAKRRAKKIKEKVLLSELSEEEQKEIKEAEEKLVRTILKYVEEAAK | 20.2 |
| T57M (designed binder) SMEEEVEKAAKEYEKKKKEAIEKHLEKLKAKDKEAAERFLKELEEAAKEYAKDEAKMMSEEEAKRRAKKYKEKVLLSELSEEEQKEIKEAEEKLVRTILKYVEEAAK | 0.446 |
| K71D (designed binder) SMEEEVEKAAKEYEKKKKEAIEKHLEKLKAKDKEAAERFLKELEEAAKEYAKDEAKTMSEEEAKRRAKKYDEKVLLSELSEEEQKEIKEAEEKLVRTILKYVEEAAK | 16.7 |
| K69N (designed binder) SMEEEVEKAAKEYEKKKKEAIEKHLEKLKAKDKEAAERFLKELEEAAKEYAKDEAKTMSEEEAKRRAKNYKEKVLLSELSEEEQKEIKEAEEKLVRTILKYVEEAAK | 2.48 |
